Measurements taken from patent publication CN114106159A (ANYUAN MEDICINE SCIENCE AND TECH SHANGHAI LIMITED COMPANY, dated 2022).

What was measured:
[1] = biological target: T1, SARS-CoV S1蛋白 (ACRO Biosystems) (SARS-CoV, UniProt P59594 14-667); assay: indirect ELISA, SARS-CoV S1 coated at 0.1 μg/mL
T1 construct: domain: S1

[2] = biological target: T2, 刺突S蛋白-鼠Fc融合蛋白 (S-mFc) (SARS-CoV-2; mouse, UniProt P0DTC2 14-1213); assay: flow cytometry, blocking of S-mFc binding to 293T-ACE2 cells
T2 construct: domain: S蛋白全长区段

[3] = biological target: T3, SARS-CoV-2 S1蛋白 (ACRO Biosystems) (SARS-CoV-2, UniProt P0DTC2 16-685); assay: competition ELISA, coated SARS-CoV-2 S1, HRP-hACE2-Fc as competitor
T3 construct: domain: S1

B1: 鼠源抗体S1B-91-3 (murine monoclonal antibody against SARS-CoV-2 S1) (antibody, V domains shown)
VH: QVQLQQSGPQLVRPGASVKISCKASGYSFTDYWLHWVKQRPGQGLEWIGMLDPSDGETRLNQKFKDKATLTVDKSSTTAYMQLSSPTSEDSAVYYCARRHFGYDFDYWGQGTTLTVSS
VL: DIVMTQAAPSVPVTPGESVSISCRSSKSLLHSNGNTYLYWFLQRPGQSPQLLIYRMSNLASGVPDRFSGSGSGTAFTLRISRVEAEDVGVYYCMQHLEYPLTFGGGTKLEVK
notes: also called 鼠源单抗S1B-91-3; 鼠抗S1B-91-3
- binding result [1]: no binding
- IC50 [2]: 0.0137 µg/mL

B2: 人源化抗体hS1B-91-3 (humanized antibody) (antibody, V domains shown)
VH: EVQLVQSGAEVKKPGSSVKVSCKASGYSFTDYWLHWVRQAPGQGLEWIGMLDPSDGETRLNQKFKDKATLTVDKSTTTAYMQLSSLRSEDTAVYYCARRHFGYDFDYWGQGTTVTVSS
VL: DIVMTQSPSSLPVTPGQPASISCRSSKSLLHSNGNTYLYWFLQKPGKSPQLLIYRMSNLASGVPDRFSGSGSGTDFTLKISRVEAEDVGVYYCMQHLEYPLTFGGGTKVEIKR
notes: also called 人源化单克隆抗体hS1B-91-3
- EC50 [3]: 0.0738 µg/mL
- IC50 [2]: 0.00813 µg/mL
